This note sets out measurements from patent publication US20100144025A1.

The target of the first test is HLA-A2 molecule (the product of HLA-A*0206 gene) (human).
RTLRVLNLV (modifications not checked) [SEQ ID NO 49]: the -log Kd is 5.97 -log Kd.

As for IVLEHGSCV (modifications not checked) [SEQ ID NO 27], the -log Kd was 6.02 -log Kd.

Take YVVIAILTV (modifications not checked) [SEQ ID NO 47]: the -log Kd is 5.86 -log Kd.

LALLAAFKV (modifications not checked) [SEQ ID NO 43]: the -log Kd was 6.47 -log Kd.

On to LVISGLFPV (modifications not checked) [SEQ ID NO 41], for which the -log Kd is 6.61 -log Kd.

Turning to HVLGRLITV (modifications not checked) [SEQ ID NO 45], the -log Kd was 6.25 -log Kd.

Regarding QILEENVEV (modifications not checked) [SEQ ID NO 50], the -log Kd is 5.61 -log Kd.

For SVIEKMEAL (modifications not checked) [SEQ ID NO 48], the -log Kd is 6.37 -log Kd.

In the next test the target is HLA-A24 molecule (the product of HLA-A*2402 gene) (human).
Take PFPQSNAPI (modifications not checked) [SEQ ID NO 5]: the -log Kd was 8.22 -log Kd.

For DWIPLALTI (modifications not checked) [SEQ ID NO 25], the -log Kd is 8 -log Kd.

As to PMSTYGWNL (modifications not checked) [SEQ ID NO 22], the -log Kd was 7.62 -log Kd.

Turning to IQKETLVTF (modifications not checked) [SEQ ID NO 18], the -log Kd is 7.24 -log Kd.

For the molecule ELPETLETL (modifications not checked) [SEQ ID NO 9], the -log Kd is 7.01 -log Kd.

In the case of HWPKSHTLW (modifications not checked) [SEQ ID NO 7], the -log Kd was 8.66 -log Kd.

With AFSGVSWTM (modifications not checked) [SEQ ID NO 2], the -log Kd is 8.19 -log Kd.

For the molecule GFLNEDHWF (modifications not checked) [SEQ ID NO 20], the -log Kd is 6.76 -log Kd.

Take KLMKITAEW (modifications not checked) [SEQ ID NO 16]: the -log Kd was 7.21 -log Kd.

As to TLYAVATTF (modifications not checked) [SEQ ID NO 11], the -log Kd was 7.58 -log Kd.

ALVAFLRFL (modifications not checked) [SEQ ID NO 21]: the -log Kd was 5.68 -log Kd.

With GLNPTAIFL (modifications not checked) [SEQ ID NO 8], the -log Kd was 6.39 -log Kd.

In the case of AWLVHRQWF (modifications not checked) [SEQ ID NO 10], the -log Kd was 8.39 -log Kd.

With YMPSVIEKM (modifications not checked) [SEQ ID NO 15], the -log Kd is 7.17 -log Kd.

As to ALSELPETL (modifications not checked) [SEQ ID NO 12], the -log Kd was 5.5 -log Kd.

Consider AYNHALSEL (modifications not checked) [SEQ ID NO 23], for which the -log Kd was 7.68 -log Kd.

For ALHQVFGAI (modifications not checked) [SEQ ID NO 19], the -log Kd is 6.05 -log Kd.

For WYAQIQPHW (modifications not checked) [SEQ ID NO 1], the -log Kd was 8.64 -log Kd.

The next test has as its target HLA-A2 molecule (the product of HLA-A*0201 gene) (human).
On to FQPESPSKL (modifications not checked) [SEQ ID NO 36], for which the -log Kd is 6.31 -log Kd.

In the case of ELPETLETL (modifications not checked) [SEQ ID NO 9], the -log Kd was 6.32 -log Kd.

For the molecule IVLEHGSCV (modifications not checked) [SEQ ID NO 27], the -log Kd was 5.74 -log Kd.

ILIRTGLLV (modifications not checked) [SEQ ID NO 33]: the -log Kd is 6.53 -log Kd.

Turning to RLITVNPIV (modifications not checked) [SEQ ID NO 31], the -log Kd is 5.64 -log Kd.

As to FLIDGPETA (modifications not checked) [SEQ ID NO 35], the -log Kd is 6.05 -log Kd.

Regarding YMPSVIEKM (modifications not checked) [SEQ ID NO 15], the -log Kd is 6.58 -log Kd.

For the molecule ALSELPETL (modifications not checked) [SEQ ID NO 12], the -log Kd is 6.05 -log Kd.

With ALHQVFGAI (modifications not checked) [SEQ ID NO 38], the -log Kd is 6.77 -log Kd.

For the molecule SLRPQPTEL (modifications not checked) [SEQ ID NO 34], the -log Kd is 5.05 -log Kd.

Take PLNEAIMAV (modifications not checked) [SEQ ID NO 29]: the -log Kd is 6.49 -log Kd.

With NLVRLQSGV (modifications not checked) [SEQ ID NO 30], the -log Kd was 4.7 -log Kd.
